Measured values from patent US7182945.
Where two headings read alike, the source gives them in different places.

T1: human leukocyte elastase (hLE) (human), P08246
T1 chain: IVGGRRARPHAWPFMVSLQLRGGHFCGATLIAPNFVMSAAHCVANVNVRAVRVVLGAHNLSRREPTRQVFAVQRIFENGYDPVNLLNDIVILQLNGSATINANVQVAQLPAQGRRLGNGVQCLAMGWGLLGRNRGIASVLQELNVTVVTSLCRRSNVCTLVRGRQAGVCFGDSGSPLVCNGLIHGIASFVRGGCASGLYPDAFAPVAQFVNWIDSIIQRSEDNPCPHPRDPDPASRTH

T2: human leukocyte cathepsin G (hCG) (human), P08311
T2 chain: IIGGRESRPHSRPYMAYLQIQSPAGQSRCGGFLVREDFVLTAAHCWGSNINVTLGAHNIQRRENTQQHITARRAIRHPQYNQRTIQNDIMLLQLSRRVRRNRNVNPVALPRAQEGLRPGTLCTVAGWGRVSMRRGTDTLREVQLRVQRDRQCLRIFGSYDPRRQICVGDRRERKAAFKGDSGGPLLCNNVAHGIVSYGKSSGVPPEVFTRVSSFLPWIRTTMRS


Tests used:
Details in all cases: modification not given
[1] = molecular target: T1, human leukocyte elastase (hLE) (human), …
[2] = molecular target: T2, human leukocyte cathepsin G (hCG) …; assay: other enzyme inhibition
[3] = molecular target: T1, human leukocyte elastase (hLE) (human), …
[4] = molecular target: T1, human leukocyte elastase (hLE) (human), …
[5] = molecular target: T1, human leukocyte elastase (hLE) (human), …
[6] = molecular target: T1, human leukocyte elastase (hLE) (human), …
[7] = molecular target: T1, human leukocyte elastase (hLE) (human), …
[8] = molecular target: T1, human leukocyte elastase (hLE) (human), …
[9] = molecular target: T1, human leukocyte elastase (hLE) (human), …
[10] = molecular target: T1, human leukocyte elastase (hLE) (human), …; assay: other enzyme inhibition
[11] = molecular target: T1, human leukocyte elastase (hLE) (human), …
[12] = molecular target: T1, human leukocyte elastase (hLE) (human), …
[13] = molecular target: T1, human leukocyte elastase (hLE) (human), …
[14] = molecular target: T1, human leukocyte elastase (hLE) (human), …
[15] = molecular target: T1, human leukocyte elastase (hLE) (human), …

Binder	Ki [2]	other results
GYSFTVGGSEILFEV [CRP72-86 (peptide 8)]	> 200 µM	–
EILIFWSVDI [peptide 26]	–	Ki [3]: 2 µM
VGGSEILFEVPEVTV [CRP77-91 (peptide 9)]	> 200 µM	–
EILIFWSKDI [CRP62-71 (peptide 14)]	6 µM	Ki [4]: 6.7 µM
WSKDIGYSFTVGGSE [CRP67-81 (peptide 7)]	> 200 µM	–
FSYATKRQDNEILIF [CRP52-66 (peptide 4)]	> 200 µM	–
EILIFWSKDIGY [CRP62-73 (peptide 13)]	4 µM	Ki [7]: 1.1 µM
EILIFWSKDIGYSFT [CRP62-76 (peptide 6)]	0.25 µM	Ki [8]: 0.18 µM
ATKRQDNEILIFWSKDIGYSFTVGGSEIL [CRP55-83 (peptide 17)]	5.5 µM	Ki [9]: 7.3 µM
LHFYTELSSTRGYSI [CRP37-51 (peptide 1)]	–	Ki [10]: > 200 µM
EILIFWSADI [peptide 25]	–	Ki [12]: 3 µM
KRQDNEILIFWSKDI [CRP57-71 (peptide 5)]	180 µM	Ki [13]: 85 µM
ILIFWSKDIGYSFT [CRP63-76 (peptide 11)]	15 µM	Ki [14]: 4.5 µM
TFSYGIDKSWFILIE [peptide 24]	–	Ki [15]: 10 µM

Continued, in another order:

Ki [2]	Binder	other results
150 µM	ILFEVPEVTVAPVHI [CRP82-96 (peptide 10)]	Ki [1]: 55 µM
0.85 µM	EILIFWSKEIGYSFT [peptide 23]	Ki [5]: 0.55 µM
2.6 µM	DILIFWSKDIGYSFT [peptide 18]	Ki [6]: 2.2 µM
30 µM	EILIFWPKDIGYSFT [peptide 19]	–
5.5 µM	EILIFWSKAIGYSFT [peptide 22]	Ki [11]: 3 µM
